These results are taken from US20090061451A1.

This experiment deals with mouse monoclonal PSA antibody. Kind of experiment: SPR, BIAcore 3000, antibody immobilised on CM5 chip.

What is called Kd is the concentration at which binding is half-saturated. A lower Kd goes with tighter binding.

“PSA-GOx complex (from UniProt P07288 25-261; P13006 23-605)”: the Kd was 18.2 nM.
For “Prostate specific antigen (PSA) (from UniProt P07288 25-261) (enzyme)” the value was 0.701 nM.
